Experimental data reported in US20220033784A1 (priority 2020, published 2022).

Assays:
[1] = biological target: T1, human intermediate-affinity IL-2 receptor complex, IL-2 CD122/CD132 (β/γ), on cells (human, UniProt P14784 27-551; P31785 23-369); experiment: cell-based or functional assay
T1 sequence (looked up) 1: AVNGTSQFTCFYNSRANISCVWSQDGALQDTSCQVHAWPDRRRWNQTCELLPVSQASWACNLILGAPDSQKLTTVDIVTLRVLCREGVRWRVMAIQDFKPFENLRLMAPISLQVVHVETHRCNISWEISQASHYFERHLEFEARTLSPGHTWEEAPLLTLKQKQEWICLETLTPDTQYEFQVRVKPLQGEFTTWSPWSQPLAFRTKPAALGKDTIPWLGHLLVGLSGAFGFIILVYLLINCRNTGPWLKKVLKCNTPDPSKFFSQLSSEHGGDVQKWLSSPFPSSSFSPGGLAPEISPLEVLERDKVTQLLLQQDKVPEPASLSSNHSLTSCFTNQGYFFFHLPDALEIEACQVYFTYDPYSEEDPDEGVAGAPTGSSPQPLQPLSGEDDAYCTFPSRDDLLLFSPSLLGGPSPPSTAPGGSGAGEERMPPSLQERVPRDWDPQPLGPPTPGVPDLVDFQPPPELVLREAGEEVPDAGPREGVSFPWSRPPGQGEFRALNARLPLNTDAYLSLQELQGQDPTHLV
T1 sequence (looked up) 2: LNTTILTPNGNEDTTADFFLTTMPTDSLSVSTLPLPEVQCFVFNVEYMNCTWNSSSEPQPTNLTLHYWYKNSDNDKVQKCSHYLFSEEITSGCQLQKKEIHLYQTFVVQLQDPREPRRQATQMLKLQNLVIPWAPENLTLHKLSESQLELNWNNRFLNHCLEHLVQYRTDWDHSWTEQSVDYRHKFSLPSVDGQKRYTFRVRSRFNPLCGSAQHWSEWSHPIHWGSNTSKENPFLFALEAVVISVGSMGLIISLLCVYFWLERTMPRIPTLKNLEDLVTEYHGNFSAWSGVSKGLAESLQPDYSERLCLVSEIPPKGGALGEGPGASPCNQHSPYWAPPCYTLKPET

[2] = biological target: T2, human high-affinity IL-2 receptor complex, IL-2 CD25/CD122/CD132 (α/β/γ), on cells (human, UniProt P01589 22-272; P14784 27-551; P31785 23-369); experiment: cell-based or functional assay
T2 sequence (looked up) 1: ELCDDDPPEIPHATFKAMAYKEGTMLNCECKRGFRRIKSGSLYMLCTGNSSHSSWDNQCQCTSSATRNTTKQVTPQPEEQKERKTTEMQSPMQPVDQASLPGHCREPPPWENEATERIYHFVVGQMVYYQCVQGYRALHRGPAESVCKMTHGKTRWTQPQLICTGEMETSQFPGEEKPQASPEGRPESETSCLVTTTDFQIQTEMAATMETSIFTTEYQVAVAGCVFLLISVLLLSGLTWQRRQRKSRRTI
T2 sequence (looked up) 2: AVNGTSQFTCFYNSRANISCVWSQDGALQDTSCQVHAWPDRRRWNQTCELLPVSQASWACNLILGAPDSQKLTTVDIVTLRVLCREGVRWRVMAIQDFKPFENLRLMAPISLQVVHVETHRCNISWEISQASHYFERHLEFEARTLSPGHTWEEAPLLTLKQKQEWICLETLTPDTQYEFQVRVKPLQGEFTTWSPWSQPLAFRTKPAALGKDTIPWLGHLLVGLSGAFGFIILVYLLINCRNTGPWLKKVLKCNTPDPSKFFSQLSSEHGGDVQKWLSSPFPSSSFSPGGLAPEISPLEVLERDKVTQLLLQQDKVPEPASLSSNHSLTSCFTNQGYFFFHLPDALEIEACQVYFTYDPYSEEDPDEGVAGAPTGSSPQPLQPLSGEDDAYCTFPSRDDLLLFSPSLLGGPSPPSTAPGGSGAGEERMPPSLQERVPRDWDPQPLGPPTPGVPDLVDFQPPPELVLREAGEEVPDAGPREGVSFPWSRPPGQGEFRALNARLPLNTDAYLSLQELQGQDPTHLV
T2 sequence (looked up) 3: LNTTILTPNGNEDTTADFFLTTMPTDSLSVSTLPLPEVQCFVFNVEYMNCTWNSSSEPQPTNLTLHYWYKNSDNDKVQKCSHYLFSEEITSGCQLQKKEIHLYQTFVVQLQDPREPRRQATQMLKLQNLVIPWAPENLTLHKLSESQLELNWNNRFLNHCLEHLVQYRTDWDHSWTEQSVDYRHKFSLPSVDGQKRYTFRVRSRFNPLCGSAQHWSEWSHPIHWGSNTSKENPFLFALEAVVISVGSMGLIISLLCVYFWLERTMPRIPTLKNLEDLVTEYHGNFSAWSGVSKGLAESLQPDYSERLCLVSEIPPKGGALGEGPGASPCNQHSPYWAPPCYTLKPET

[3] = test system: Treg cells (CD3+CD4+CD25+ Foxp3+); assay type: cell-based, mouse (C57BL/6); settings: protein from supernatants of virus-infected HeLa cells, 15 minutes incubation

B1: Fc-IL2-T41N:K43T-E62N:K64T (Fc fusion)
chain: GGGGSGGGGSAPTSSSTKKTQLQLEHLLLDLQMILNGINNYKNPKLTRMLNFTFYMPKKATELKHLQCLEENLTPLEEVLNLAQSKNFHLRPRDLISNINVIVLELKGSETTFMCEYADETATIVEFLNRWITFCQSIISTLT
[1]
  EC50 (read off the curve), pSTAT5 MFI in NK cells of hPBMC: ~6 nM
[2]
  EC50 (read off the curve), pSTAT5 MFI in Treg cells of hPBMC: ~20 nM

B2: Fc-IL2-T41N:K43T-L72N:Q74T (Fc fusion)
chain: GGGGSGGGGSAPTSSSTKKTQLQLEHLLLDLQMILNGINNYKNPKLTRMLNFTFYMPKKATELKHLQCLEEELKPLEEVLNNATSKNFHLRPRDLISNINVIVLELKGSETTFMCEYADETATIVEFLNRWITFCQSIISTLT
[1]
  EC50 (read off the curve), pSTAT5 MFI in NK cells of hPBMC: ~6 nM
[2]
  EC50 (read off the curve), pSTAT5 MFI in Treg cells of hPBMC: ~20 nM

B3: IL-2gv1 (protein)
chain: APTSSSTKKTQLQLEHLLLDLQMILNGINNYKNPKLTNMTTFNFTMPKKATELKHLQCLEEELKPLEEVLNLAQSKNFHLRPRDLISNINVIVLELKGSETTFMCEYADETATIVEFLNRWITFCQSIISTLT
[3]
  activity on Treg cells (concentration potency at inducing pSTAT5) compared to wild-type IL-2: reduced activity on Treg cells

B4: IL-2gv2 (protein)
chain: APTSSSTKKTQLQLEHLLLDLQMILNGINNYKNPKLTRMLTFNFTMPKKATELKHLQCLEEELKPLEEVLNNATSKNFHLRPRDLISNINVIVLELKGSETTFMCEYADETATIVEFLNRWITFCQSIISTLT
[3]
  activity on Treg cells (concentration potency at inducing pSTAT5) compared to wild-type IL-2: reduced activity on Treg cells
